T1: biotinylated human DLL3 protein expressed as a human IgG1 fusion protein (human, UniProt Q9NYJ7 27-492, limits assumed, biotinylated)
T1 sequence: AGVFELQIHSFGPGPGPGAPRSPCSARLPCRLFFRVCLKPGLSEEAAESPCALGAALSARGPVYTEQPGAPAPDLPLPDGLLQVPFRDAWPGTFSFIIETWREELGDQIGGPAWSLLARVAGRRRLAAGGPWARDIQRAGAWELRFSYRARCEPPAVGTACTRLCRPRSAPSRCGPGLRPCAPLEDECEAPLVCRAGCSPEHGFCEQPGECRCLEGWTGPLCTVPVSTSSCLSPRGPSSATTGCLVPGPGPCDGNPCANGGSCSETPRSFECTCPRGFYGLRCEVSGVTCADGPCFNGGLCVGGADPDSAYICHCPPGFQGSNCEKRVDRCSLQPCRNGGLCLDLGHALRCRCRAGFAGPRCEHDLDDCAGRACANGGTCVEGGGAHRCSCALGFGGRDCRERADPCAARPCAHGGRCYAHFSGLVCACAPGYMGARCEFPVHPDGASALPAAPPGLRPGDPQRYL


biological target: T1, biotinylated human DLL3 protein …; assay: Octet BLI, single 50 nM
Method: Using the conditioned medium with known concentrations of the anti-DLL3 trispecific proteins, the binding affinities of the anti-DLL3 trispecific proteins toward human DLL3 protein were measured using a method where biotinylated version of human DLL3 protein were expressed as a human IgG1 fusion protein, and the binding affinity measurement was carried out in an Octet instrument with streptavidin tips.

Row | Binder | Kd [nM]
1 | 1F011 anti-DLL3 trispecific protein (other, not shown: linker 1808, anti-albumin sdAb, linker 1808, anti-CD3 fragment, His6 1819) EVQLVESGGGLVQPGGSLTLSCVASGSTSSINAIGWYRRAPGKQRELVAGISSDGSKVYADSVKGRFTISRDNAKNSVYLQMNSLRAEDTAVYYCYYFRTVKGSSMRYWGQGTLVTVSS | 5
2 | 1H07 anti-DLL3 trispecific protein (other, not shown: linker 1808, anti-albumin sdAb, linker 1808, anti-CD3 fragment, His6 1819) EVQLVESGGGLVQPGGSLTLSCVASGSTSSINAFGWYRRAPGKQRELVAGISSDGSKVYSDSVKGRFTISRDNAKNSVYLQMNSLRAEDTAVYYCYYFRTVSGSSMRYWGQGTLVTVSS | 6.2
3 | 1H06 anti-DLL3 trispecific protein (other, not shown: linker 1808, anti-albumin sdAb, linker 1808, anti-CD3 fragment, His6 1819) EVQLVESGGGLVQPGGSLTLSCVASGTTSSINAMGWYRRAPGKQRELVAGISSDGSKVYVDSVKGRFTISRDNAKNSVYLQMNSLRAEDTAVYYCYYFRFLSGSSMRYWGQGTLVTVSS | 14
4 | 2A08 anti-DLL3 trispecific protein (other, not shown: linker 1808, anti-albumin sdAb, linker 1808, anti-CD3 fragment, His6 1819) EVQLVESGGGLVQPGGSLTLSCVASGSTKSINAMGWYRRAPGKQRELVAGISSDGSKVYRDSVKGRFTISRDNAKNSVYLQMNSLRAEDTAVYYCYYFRTSSGSSMRYWGQGTLVTVSS | 7.7
5 | 2A01 anti-DLL3 trispecific protein (other, not shown: linker 1808, anti-albumin sdAb, linker 1808, anti-CD3 fragment, His6 1819) EVQLVESGGGLVQPGGSLTLSCVASGSTSSINAMGWYRRAPGKQRELVAGISSDGSKVVADSVKGRFTISRDNAKNSVYLQMNSLRAEDTAVYYCYYFRTLSGSSMRYWGQGTLVTVSS | 8
6 | 1H011 anti-DLL3 trispecific protein (other, not shown: linker 1808, anti-albumin sdAb, linker 1808, anti-CD3 fragment, His6 1819) EVQLVESGGGLVQPGGSLTLSCVASGSTSSINAIGWYRRAPGKQRELVAGISSDGSKVYNDSVKGRFTISRDNAKNSVYLQMNSLRAEDTAVYYCYYFRTQSGSSMRYWGQGTLVTVSS | 6.2
7 | 2A03 anti-DLL3 trispecific protein (other, not shown: linker 1808, anti-albumin sdAb, linker 1808, anti-CD3 fragment, His6 1819) EVQLVESGGGLVQPGGSLTLSCVASGTTSSINAMGWYRRAPGKQRELVAGISSDGSKVYGDSVKGRFTISRDNAKNSVYLQMNSLRAEDTAVYYCYYFRTVSGSAMRYWGQGTLVTVSS | 8.2
8 | 1G01 anti-DLL3 trispecific protein (other, not shown: linker 1808, anti-albumin sdAb, linker 1808, anti-CD3 fragment, His6 1819) EVQLVESGGGLVQPGGSLTLSCVASGSTSSINAMAWYRRAPGKQRELVAGISSDGSKVYAESVKGRFTISRDNAKNSVYLQMNSLRAEDTAVYYCYYFRTVSGASMRYWGQGTLVTVSS | 6.6
9 | 1G06 anti-DLL3 trispecific protein (other, not shown: linker 1808, anti-albumin sdAb, linker 1808, anti-CD3 fragment, His6 1819) EVQLVESGGGLVQPGGSLTLSCVASGSTSSINAIGWYRRAPGKQRELVAGISSDGSKVYAVSVKGRFTISRDNAKNSVYLQMNSLRAEDTAVYYCYYFRKVSGSSARYWGQGTLVTVSS | 26
10 | 1H010 anti-DLL3 trispecific protein (other, not shown: linker 1808, anti-albumin sdAb, linker 1808, anti-CD3 fragment, His6 1819) EVQLVESGGGLVQPGGSLTLSCVASGSTRSINAMGWYRRAPGKQRELVAGISSDGSKVYNDSVKGRFTISRDNAKNSVYLQMNSLRAEDTAVYYCYYFRTVSGSSMRFWGQGTLVTVSS | 8.4
11 | 2B012 anti-DLL3 trispecific protein (other, not shown: linker 1808, anti-albumin sdAb, linker 1808, anti-CD3 fragment, His6 1819) EVQLVESGGGLVQPGGSLTLSCVASGTTSSINAMGWYRRAPGKQRELVAGISSDGSKVYNDSVKGRFTISRDNAKNSVYLQMNSLRAEDTAVYYCYYFRTVRGSSMRYWGQGTLVTVSS | 7.3
12 | 2B010 anti-DLL3 trispecific protein (other, not shown: linker 1808, anti-albumin sdAb, linker 1808, anti-CD3 fragment, His6 1819) EVQLVESGGGLVQPGGSLTLSCVASGSTSSRNAMGWYRRAPGKQRELVAGISSDGSKLYLDSVKGRFTISRDNAKNSVYLQMNSLRAEDTAVYYCYYFRTVLGSSMRYWGQGTLVTVSS | 10
13 | 2B07 anti-DLL3 trispecific protein (other, not shown: linker 1808, anti-albumin sdAb, linker 1808, anti-CD3 fragment, His6 1819) EVQLVESGGGLVQPGGSLTLSCVASGSTSSINAFGWYRRAPGKQRELVAGISSDGSKVYADSVKGRFTISRDNAKNSVYLQMNSLRAEDTAVYYCYYFRTVRGSSMRYWGQGTLVTVSS | 5.7
14 | 1G05 anti-DLL3 trispecific protein (other, not shown: linker 1808, anti-albumin sdAb, linker 1808, anti-CD3 fragment, His6 1819) EVQLVESGGGLVQPGGSLTLSCVASGSTSSINAIGWYRRAPGKQRELVAGISSDGSKYYADSVKGRFTISRDNAKNSVYLQMNSLRAEDTAVYYCYYFRTVTGSSMRYWGQGTLVTVSS | 14
15 | 1G09 anti-DLL3 trispecific protein (other, not shown: linker 1808, anti-albumin sdAb, linker 1808, anti-CD3 fragment, His6 1819) EVQLVESGGGLVQPGGSLTLSCVASGSTSSINAMGWYRRAPGKQRELVAGISSDGSKVYADSVKGRFTISRDNAKNSVYLQMNSLRAEDTAVYYCYYFRTVSKSSMRYWGQGTLVTVSS | 10
16 | 2A09 anti-DLL3 trispecific protein (other, not shown: linker 1808, anti-albumin sdAb, linker 1808, anti-CD3 fragment, His6 1819) EVQLVESGGGLVQPGGSLTLSCVASGSTSSRNAMGWYRRAPGKQRELVAGISSNGSKVYSDSVKGRFTISRDNAKNSVYLQMNSLRAEDTAVYYCYYFRTVSGSSMSYWGQGTLVTVSS | 10
17 | 1G011 anti-DLL3 trispecific protein (other, not shown: linker 1808, anti-albumin sdAb, linker 1808, anti-CD3 fragment, His6 1819) EVQLVESGGGLVQPGGSLTLSCVASGSTSSINAMAWYRRAPGKQRELVAGISSDGSKVYADSVKGRFTISRDNAKNSVYLQMNSLRAEDTAVYYCYYFKTVSGSSMRYWGQGTLVTVSS | 6.8
18 | 2B02 anti-DLL3 trispecific protein (other, not shown: linker 1808, anti-albumin sdAb, linker 1808, anti-CD3 fragment, His6 1819) EVQLVESGGGLVQPGGSLTLSCVASGSTSSINAMAWYRRAPGKQRELVAGISSDGSKVYADSVKGRFTISRDNAKNSVYLQMNSLRAEDTAVYYCYYFRTKSGSSMRYWGQGTLVTVSS | 6.6
19 | 2B011 anti-DLL3 trispecific protein (other, not shown: linker 1808, anti-albumin sdAb, linker 1808, anti-CD3 fragment, His6 1819) EVQLVESGGGLVQPGGSLTLSCVASGNTSSINAMGWYRRAPGKQRELVAGISSDGSRVYADSVKGRFTISRDNAKNSVYLQMNSLRAEDTAVYYCYYFRTVSGSSMRSWGQGTLVTVSS | 11

Now from value to binder:

Row | Kd [nM] | Binder
20 | 17 | 1H08 anti-DLL3 trispecific protein (other, not shown: linker 1808, anti-albumin sdAb, linker 1808, anti-CD3 fragment, His6 1819) EVQLVESGGGLVQPGGSLTLSCVASGSTFSINAMGWYRRAPGKQRELVAGISSDGSKVLADSVKGRFTISRDNAKNSVYLQMNSLRAEDTAVYYCYYFRLVSGSSMRYWGQGTLVTVSS
21 | 4 | 2A011 anti-DLL3 trispecific protein (other, not shown: linker 1808, anti-albumin sdAb, linker 1808, anti-CD3 fragment, His6 1819) EVQLVESGGGLVQPGGSLTLSCVASGSTSSINAIGWYRRAPGKQRELVAGISSDGSKVYSDSVKGRFTISRDNAKNSVYLQMNSLRAEDTAVYYCYYFRPVSGSSMRYWGQGTLVTVSS
22 | 8.9 | 2A05 anti-DLL3 trispecific protein (other, not shown: linker 1808, anti-albumin sdAb, linker 1808, anti-CD3 fragment, His6 1819) EVQLVESGGGLVQPGGSLTLSCVASGRTSSINAMGWYRRAPGKQRELVAGISSDGSKVYNDSVKGRFTISRDNAKNSVYLQMNSLRAEDTAVYYCYYFRTVSGTSMRYWGQGTLVTVSS
23 | 7.6 | 2B03 anti-DLL3 trispecific protein (other, not shown: linker 1808, anti-albumin sdAb, linker 1808, anti-CD3 fragment, His6 1819) EVQLVESGGGLVQPGGSLTLSCVASGSTSSINAMGWYRRAPGKQRELVAGISSDGSLVYADSVKGRFTISRDNAKNSVYLQMNSLRAEDTAVYYCYYFTTVSGSSMRYWGQGTLVTVSS
24 | 8.9 | 2A06 anti-DLL3 trispecific protein (other, not shown: linker 1808, anti-albumin sdAb, linker 1808, anti-CD3 fragment, His6 1819) EVQLVESGGGLVQPGGSLTLSCVASGSTSSRNAMGWYRRAPGKQRELVAGISSDGSKVTADSVKGRFTISRDNAKNSVYLQMNSLRAEDTAVYYCYYFRTRSGSSMRYWGQGTLVTVSS
25 | 10 | 1H02 anti-DLL3 trispecific protein (other, not shown: linker 1808, anti-albumin sdAb, linker 1808, anti-CD3 fragment, His6 1819) EVQLVESGGGLVQPGGSLTLSCVASGSKSSINAMGWYRRAPGKQRELAAGISSDGSKVYAQSVKGRFTISRDNAKNSVYLQMNSLRAEDTAVYYCYYFRTSSGSSMRYWGQGTLVTVSS
26 | 5.7 | 1H01 anti-DLL3 trispecific protein (other, not shown: linker 1808, anti-albumin sdAb, linker 1808, anti-CD3 fragment, His6 1819) EVQLVESGGGLVQPGGSLTLSCVASGSTSSINAMAWYRRAPGKQRELAAGISSDNSKVYADSVKGRFTISRDNAKNSVYLQMNSLRAEDTAVYYCYYFRTRSGSSMRYWGQGTLVTVSS
27 | 11 | 1G04 anti-DLL3 trispecific protein (other, not shown: linker 1808, anti-albumin sdAb, linker 1808, anti-CD3 fragment, His6 1819) EVQLVESGGGLVQPGGSLTLSCVASGSTSSTNAMGWYRRAPGKQRELVAGISSDGSKVLADSVKGRFTISRDNAKNSVYLQMNSLRAEDTAVYYCYYFRTVNLSSMRYWGQGTLVTVSS
28 | 10 | 2B01 anti-DLL3 trispecific protein (other, not shown: linker 1808, anti-albumin sdAb, linker 1808, anti-CD3 fragment, His6 1819) EVQLVESGGGLVQPGGSLTLSCVASGSTSLINAMGWYRRAPGKQRELVAGISSDGSKVYADSVKGRFTISRDNAKNSVYLQMNSLRAEDTAVYYCYYFRHVSGSSMRYWGQGTLVTVSS
29 | 5.8 | 1F012 anti-DLL3 trispecific protein (other, not shown: linker 1808, anti-albumin sdAb, linker 1808, anti-CD3 fragment, His6 1819) EVQLVESGGGLVQPGGSLTLSCVASGLTSSINAMGWYRRAPGKQRELVAGISSDGSKVYQDSVKGRFTISRDNAKNSVYLQMNSLRAEDTAVYYCYYFRTNSGSSMRYWGQGTLVTVSS
30 | 7.4 | 2B05 anti-DLL3 trispecific protein (other, not shown: linker 1808, anti-albumin sdAb, linker 1808, anti-CD3 fragment, His6 1819) EVQLVESGGGLVQPGGSLTLSCVASGTTSSINAMGWYRRAPGKQRELVAGISSDGTKVYADSVKGRFTISRDNAKNSVYLQMNSLRAEDTAVYYCYYFHTVSGSSMRYWGQGTLVTVSS
31 | 8.3 | 1G07 anti-DLL3 trispecific protein (other, not shown: linker 1808, anti-albumin sdAb, linker 1808, anti-CD3 fragment, His6 1819) EVQLVESGGGLVQPGGSLTLSCVASGSTSSINAMGWYRRAPGKQRELVAGISSDGSKVVADSVKGRFTISRDNAKNSVYLQMNSLRAEDTAVYYCYYFRTYSGSSMRYWGQGTLVTVSS

From patent US20240141072A1 (published 2024)
